This note sets out measurements from publication PMC11349758.

One assay concerns the target STAT5B (UniProt P42232). The assay can be described thus: anti-STAT5A IP, anti-STAT5B blot. The following applies: reference: WT T cells, IL-2 stimulated; sites Y694.
The next assay addresses STAT5A (UniProt P42230). The assay can be described thus: anti-STAT5A IP, anti-STAT5B blot. The following applies: reference: WT T cells, IL-2 stimulated; sites Y699.

Turning to “STAT5A (from UniProt P42230) Stat5a KI (Y694F) T cells, IL-2 stimulated”, in the assay with STAT5B, the “binding against the reference” value is given as “lost”. With “STAT5B (from UniProt P42232) Stat5b KI (Y699F) T cells, IL-2 stimulated”, the “binding against the reference” value in the assay with STAT5A is reported as “lost”.
